Target: StAR (UniProt P51557)
Assay: co-immunoprecipitation and western blot
Details: reference: wild-type 14-3-3γ; sites S71

- binding against the reference: weaker
Substance: 14-3-3γ (from UniProt P61982) S71A 14-3-3γ

Reference: article PMC11095200
